Laboratory results: patent US20250000992A1 (Eli Lilly, published 2025)
Values belong to the binder of their own block, whether it stands above or below them.

What was measured:
[1] = target: T1, Sortilin receptor on HEK293 cells (UniProt Q99523 78-831, limits assumed); test: +/- matrix drawn left of the bar chart (Cathepsin D ELISA, HEK293 cells); the binding assay behind the marks is not given
T1 construct: whole, on cells

[2] = target: Human TfR on HEK293 cells (human, UniProt P02786 1-760); test: cell-based or functional assay
[3] = target: T1, Sortilin receptor on HEK293 cells; test: told with the HEK293 cathepsin D assay (FIG. 5); no direct binding assay described

binding result [1]: binds
B1: His-PGRN (ligand)
single chain: HHHHHHGGGGQGGGGQGGGGQENLYFQSGGGGQTRCPDGQFCPVACCLDPGGASYSCCRPLLDKWPTTLSRHLGGPCQVDAHCSAGHSCIFTVSGTSSCCPFPEAVACGDGHHCCPRGFHCSADGRSCFQRSGNNSVGAIQCPDSQFECPDFSTCCVMVDGSWGCCPMPQASCCEDRVHCCPHGAFCDLVHTRCITPTGTHPLAKKLPAQRTNRAVALSSSVMCPDARSRCPDGSTCCELPSGKYGCCPMPNATCCSDHLHCCPQDTVCDLIQSKCLSKENATTDLLTKLPAHTVGDVKCDMEVSCPDGYTCCRLQSGAWGCCPFTQAVCCEDHIHCCPAGFTCDTQKGTCEQGPHQVPWMEKAPAHLSLPDPQALKRDVPCDNVSSCPSSDTCCQLTSGEWGCCPIPEAVCCSDHQHCCPQGYTCVAEGQCQRGSEIVAGLEKMPARRASLSHPRDIGCDQHTSCPVGQTCCPSLGGSWACCQLPHAVCCEDRQHCCPAGYTCNVKARSCEKEVVSAQPATFLARSPHVGVKDVECGEGHFCHDNQTCCRDNRQGWACCPYRQGVCCADRRHCCPAGFRCAARGTKCLRREAPRWDAPLRDPALRQLL
notes: 55; also called His tagged PGRN; His-Tagged PGRN

Mature Cathepsin D levels in cell lysate (ELISA), HEK293 cells, 100 ng/mL, 24 hours [2]: 66
binding result [3]: no binding
B2: Sandwich Ex. 4 (H3.03-PGRN-C90.43) (Fab)
heavy: EVQLVESGGGLVKPGGSLRLSCVASGFTFSSYSMNWVRQAPGKGLEWVSSISRSSSYIYYADSVKGRFTISRDNAKNSLYLQMNSLRAEDTAVYYCARIHGYSNSDAFDKWGQGTLVTVSSASTKGPCVFPLAPSSKSTSGGTAALGCLVKDYFPEPVTVSWNSGALTSGVHTFPAVLQSSGLYSLSSVVTVPSSSLGTQTYICNVNHKPSNTKVDKKVEPKSCDKTHTGGGGQGGGGQGGGGQTRCPDGQFCPVACCLDPGGASYSCCRPLLDKWPTTLSRHLGGPCQVDAHCSAGHSCIFTVSGTSSCCPFPEAVACGDGHHCCPRGFHCSADGRSCFQRSGNNSVGAIQCPDSQFECPDFSTCCVMVDGSWGCCPMPQASCCEDRVHCCPHGAFCDLVHTRCITPTGTHPLAKKLPAQRTNRAVALSSSVMCPDARSRCPDGSTCCELPSGKYGCCPMPNATCCSDHLHCCPQDTVCDLIQSKCLSKENATTDLLTKLPAHTVGDVKCDMEVSCPDGYTCCRLQSGAWGCCPFTQAVCCEDHIHCCPAGFTCDTQKGTCEQGPHQVPWMEKAPAHLSLPDPQALKRDVPCDNVSSCPSSDTCCQLTSGEWGCCPIPEAVCCSDHQHCCPQGYTCVAEGQCQRGSEIVAGLEKMPARRASLSHPRDIGCDQHTSCPVGQTCCPSLGGSWACCQLPHAVCCEDRQHCCPAGYTCNVKARSCEKEVVSAQPATFLARSPHVGVKDVECGEGHFCHDNQTCCRDNRQGWACCPYRQGVCCADRRHCCPAGFRCAARGTKCLRREAPRWDAPLRDPALRQLLGGGGQGGGGQGGGGQEVQLLESGGGLVQPGGSLRLSCAASGRYIDETAVAWFRQAPGKGREFVAGIGGGVDITYYADSVKGRFTISRDNSKNTLYLQMNSLRPEDTAVYYCGARPGRPLITSKVADLYPYWGQGTLVTVSSPP
light: DIQMTQSPSAMSASVGDRVTITCRASQGISNYLAWFQQKPGKVPKRLIYAASSLQSGVPSRFSGSGSGTEFTLTISSLQPEDFATYYCLQHNSYPRTFGQGTKVEIKRTVAAPSVFIFPPSDEQLKSGTASVVCLLNNFYPREAKVQWKVDNALQSGNSQESVTEQDSKDSTYSLSSTLTLSKADYEKHKVYACEVTHQGLSSPVTKSFNRGEC
notes: Fab fusion with the H3.03 Fab in place of 8D3
